In publication PMC6555819, “Comprehensive study of nuclear receptor DNA binding provides a revised framework for understanding receptor specificity”:

Biological target: PPARa:RXRa (Homo sapiens, UniProt Q07869;P19793 full;full)
Test: no ligand; PBM; 270 nM : 90 nM RXRa; PBS pH 7.4, 2% milk, 0.02% Triton X-100, 1 mM DTT, BSA, 0.4 mg/ml salmon testes DNA
Conditions: tags: GST kept;His cleaved; copies: 1;1; label: surface-attached array probe
Summary of the method: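 Custom Agilent 4×180K protein-binding microarrays carried double-stranded probes. Their 34-nt variable regions held direct-repeat seeds, single-nucleotide variants, half-site ablations and random human genomic background sequences. Arrays were incubated 1 h with ligand-free nuclear receptor dimers in PBS pH 7.4, 2% milk, 0.02% Triton X-100, 1 mM DTT, 0.2 mg/mL BSA and 0.4 mg/ml salmon testes DNA. Antibodies against each partner (one per run) detected binding, and scanned fluorescence was regression-normalized. Binding z-scores use random background probes as reference.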

PPARa:RXRa, sequence (Q07869 whole entry, chain 1 of 2): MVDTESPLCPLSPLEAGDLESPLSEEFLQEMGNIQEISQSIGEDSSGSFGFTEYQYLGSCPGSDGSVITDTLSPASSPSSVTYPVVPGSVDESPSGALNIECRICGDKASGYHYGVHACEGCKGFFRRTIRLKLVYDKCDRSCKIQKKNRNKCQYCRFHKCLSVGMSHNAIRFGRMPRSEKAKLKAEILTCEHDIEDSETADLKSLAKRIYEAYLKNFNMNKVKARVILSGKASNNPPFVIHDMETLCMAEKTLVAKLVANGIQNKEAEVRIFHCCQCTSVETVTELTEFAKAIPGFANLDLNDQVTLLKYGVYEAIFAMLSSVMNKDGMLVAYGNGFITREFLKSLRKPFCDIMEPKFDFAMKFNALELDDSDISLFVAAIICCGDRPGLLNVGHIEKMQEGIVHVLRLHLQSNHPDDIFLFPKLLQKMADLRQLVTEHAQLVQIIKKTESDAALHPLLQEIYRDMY
PPARa:RXRa, sequence (P19793 whole entry, chain 2 of 2): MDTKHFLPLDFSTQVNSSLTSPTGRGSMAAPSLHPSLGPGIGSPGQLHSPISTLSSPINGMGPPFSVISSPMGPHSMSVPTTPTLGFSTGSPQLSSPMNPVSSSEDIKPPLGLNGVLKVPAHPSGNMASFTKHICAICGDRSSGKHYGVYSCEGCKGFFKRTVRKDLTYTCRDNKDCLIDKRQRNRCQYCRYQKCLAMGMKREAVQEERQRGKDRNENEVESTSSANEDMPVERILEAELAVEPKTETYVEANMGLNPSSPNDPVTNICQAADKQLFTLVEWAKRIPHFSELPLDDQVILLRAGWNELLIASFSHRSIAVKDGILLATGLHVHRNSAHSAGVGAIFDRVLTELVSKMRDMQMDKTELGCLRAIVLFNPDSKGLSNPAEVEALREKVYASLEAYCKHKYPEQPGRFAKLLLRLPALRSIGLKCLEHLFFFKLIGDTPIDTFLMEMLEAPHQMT

Binder | binding signal
NRC3_wobSeed31_DR1_A15T_o1 (dsDNA) DNA 1: GCTCATATAGGTAATAGGTGAAAGTCGGTGTGGTAAGCGATTGACAGCGTAGAATGAAGG DNA 2: CCTTCATTCTACGCTGTCAATCGCTTACCACACCGACTTTCACCTATTACCTATATGAGC | 3.69 PBM z-score against 500 random probes
NRC3_wobSeed29_DR1_G24A_o1 (dsDNA) DNA 1: GCGCTTACGGGTCAAAGGTTATAACATGAATAGAATGCGATTGACAGCGTAGAATGAAGG DNA 2: CCTTCATTCTACGCTGTCAATCGCATTCTATTCATGTTATAACCTTTGACCCGTAAGCGC | 7.28 PBM z-score against 500 random probes
NRC3_wobSeed29_DR1_C4A_o1 (dsDNA) DNA 1: GCGATTACGGGTCAAAGGTTATAGCATGAATAGAATGCGATTGACAGCGTAGAATGAAGG DNA 2: CCTTCATTCTACGCTGTCAATCGCATTCTATTCATGCTATAACCTTTGACCCGTAATCGC | 7.27 PBM z-score against 500 random probes
NRC3_wobSeed30_DR1_T5C_o1 (dsDNA) DNA 1: GCACCAGCAGGCCAAGGGTCACTCAAGATTAGTCCGGCGATTGACAGCGTAGAATGAAGG DNA 2: CCTTCATTCTACGCTGTCAATCGCCGGACTAATCTTGAGTGACCCTTGGCCTGCTGGTGC | 3.87 PBM z-score against 500 random probes
NRC3_wobSeed44_DR1_A6C_o1 (dsDNA) DNA 1: GCTGACTGAGGTTAAAGATCAGGGAACGTGGCGTCGGCGATTGACAGCGTAGAATGAAGG DNA 2: CCTTCATTCTACGCTGTCAATCGCCGACGCCACGTTCCCTGATCTTTAACCTCAGTCAGC | 3.82 PBM z-score against 500 random probes
NRC3_wobSeed125_DR5_C15G_o1 (dsDNA) DNA 1: GCCCTTACGGGTCAGTGACAGGTTATAGCATTTGGAGCGATTGACAGCGTAGAATGAAGG DNA 2: CCTTCATTCTACGCTGTCAATCGCTCCAAATGCTATAACCTGTCACTGACCCGTAAGGGC | 3.89 PBM z-score against 500 random probes
NRC3_wobSeed66_DR2_A6T_o1 (dsDNA) DNA 1: GCAATTCAGGGTCACTAGGCCAGAGTAGGTACGAATGCGATTGACAGCGTAGAATGAAGG DNA 2: CCTTCATTCTACGCTGTCAATCGCATTCGTACCTACTCTGGCCTAGTGACCCTGAATTGC | 6.63 PBM z-score against 500 random probes
NRC3_wobSeed97_DR4_G27T_o1 (dsDNA) DNA 1: GCCAAACTAGGTCACGAAAGGTCAAATTCGAATGACGCGATTGACAGCGTAGAATGAAGG DNA 2: CCTTCATTCTACGCTGTCAATCGCGTCATTCGAATTTGACCTTTCGTGACCTAGTTTGGC | 7.06 PBM z-score against 500 random probes
NRC3_wobSeed97_DR4_C29G_o1 (dsDNA) DNA 1: GCCAAACTAGGTCACGAAAGGTCAAAGTGGAATGACGCGATTGACAGCGTAGAATGAAGG DNA 2: CCTTCATTCTACGCTGTCAATCGCGTCATTCCACTTTGACCTTTCGTGACCTAGTTTGGC | 6.97 PBM z-score against 500 random probes
NRC3_wobSeed36_DR1_G9T_o1 (dsDNA) DNA 1: GCCCGACTTGGGCAAAGGTTACCATACTCAGTACGAGCGATTGACAGCGTAGAATGAAGG DNA 2: CCTTCATTCTACGCTGTCAATCGCTCGTACTGAGTATGGTAACCTTTGCCCAAGTCGGGC | 3.64 PBM z-score against 500 random probes
NRC3_wobSeed76_DR3_A16C_o1 (dsDNA) DNA 1: GCCCTACTGGGCCAACAAGGTCATTGATGCCGATAAGCGATTGACAGCGTAGAATGAAGG DNA 2: CCTTCATTCTACGCTGTCAATCGCTTATCGGCATCAATGACCTTGTTGGCCCAGTAGGGC | 3.78 PBM z-score against 500 random probes
NRC3_wobSeed33_DR1_T4G_o1 (dsDNA) DNA 1: GCAGCTCTAGGTAAAAGTTCAGTGAATCCCGAGGATGCGATTGACAGCGTAGAATGAAGG DNA 2: CCTTCATTCTACGCTGTCAATCGCATCCTCGGGATTCACTGAACTTTTACCTAGAGCTGC | 3.86 PBM z-score against 500 random probes
NRC3_wobSeed25_DR1_A5T_o1 (dsDNA) DNA 1: GCCATACTAGGTCAAAGGTCAAAGTCGAGCCAACCAGCGATTGACAGCGTAGAATGAAGG DNA 2: CCTTCATTCTACGCTGTCAATCGCTGGTTGGCTCGACTTTGACCTTTGACCTAGTATGGC | 8.27 PBM z-score against 500 random probes
NRC3_wobSeed25_DR1_A6T_o1 (dsDNA) DNA 1: GCCAATCTAGGTCAAAGGTCAAAGTCGAGCCAACCAGCGATTGACAGCGTAGAATGAAGG DNA 2: CCTTCATTCTACGCTGTCAATCGCTGGTTGGCTCGACTTTGACCTTTGACCTAGATTGGC | 8.22 PBM z-score against 500 random probes
NRC3_wobSeed25_DR1_G24A_o1 (dsDNA) DNA 1: GCCAAACTAGGTCAAAGGTCAAAATCGAGCCAACCAGCGATTGACAGCGTAGAATGAAGG DNA 2: CCTTCATTCTACGCTGTCAATCGCTGGTTGGCTCGATTTTGACCTTTGACCTAGTTTGGC | 8.04 PBM z-score against 500 random probes
NRC3_wobSeed28_DR1_T26C_o1 (dsDNA) DNA 1: GCCCTACTGGGCCAAAGGTCATTGACTCCAATGCTCGCGATTGACAGCGTAGAATGAAGG DNA 2: CCTTCATTCTACGCTGTCAATCGCGAGCATTGGAGTCAATGACCTTTGGCCCAGTAGGGC | 6.99 PBM z-score against 500 random probes
NRC3_wobSeed28_DR1_C12G_o1 (dsDNA) DNA 1: GCCCTACTGGGGCAAAGGTCATTGATTCCAATGCTCGCGATTGACAGCGTAGAATGAAGG DNA 2: CCTTCATTCTACGCTGTCAATCGCGAGCATTGGAATCAATGACCTTTGCCCCAGTAGGGC | 6.86 PBM z-score against 500 random probes

Binder | binding signal
NRC3_wobSeed136_DR5_A30G_o1 (dsDNA) DNA 1: GCTAGCCTAGGTCATTCAGGGGCCAGTATGGAAAGCGCGATTGACAGCGTAGAATGAAGG DNA 2: CCTTCATTCTACGCTGTCAATCGCGCTTTCCATACTGGCCCCTGAATGACCTAGGCTAGC | 3.67 PBM z-score against 500 random probes
NRC3_wobSeed136_DR5_C24T_o1 (dsDNA) DNA 1: GCTAGCCTAGGTCATTCAGGGGCTAGTATAGAAAGCGCGATTGACAGCGTAGAATGAAGG DNA 2: CCTTCATTCTACGCTGTCAATCGCGCTTTCTATACTAGCCCCTGAATGACCTAGGCTAGC | 3.65 PBM z-score against 500 random probes
NRC3_wobSeed53_DR2_G9A_o1 (dsDNA) DNA 1: GCCCTTACAGGTCACGAGGTTATAGCACGACGAGCGGCGATTGACAGCGTAGAATGAAGG DNA 2: CCTTCATTCTACGCTGTCAATCGCCGCTCGTCGTGCTATAACCTCGTGACCTGTAAGGGC | 6.65 PBM z-score against 500 random probes
NRC3_wobSeed64_DR2_G19A_o1 (dsDNA) DNA 1: GCTAGCCTAGGTCATTGGACCAGTATAGTACGCATCGCGATTGACAGCGTAGAATGAAGG DNA 2: CCTTCATTCTACGCTGTCAATCGCGATGCGTACTATACTGGTCCAATGACCTAGGCTAGC | 3.84 PBM z-score against 500 random probes
NRC3_wobSeed124_DR5_A29T_o1 (dsDNA) DNA 1: GCCCTACTGGGCCATTCAGAGGTCATTGTTCATATGGCGATTGACAGCGTAGAATGAAGG DNA 2: CCTTCATTCTACGCTGTCAATCGCCATATGAACAATGACCTCTGAATGGCCCAGTAGGGC | 3.73 PBM z-score against 500 random probes
NRC3_wobSeed124_DR5_C17G_o1 (dsDNA) DNA 1: GCCCTACTGGGCCATTGAGAGGTCATTGATCATATGGCGATTGACAGCGTAGAATGAAGG DNA 2: CCTTCATTCTACGCTGTCAATCGCCATATGATCAATGACCTCTCAATGGCCCAGTAGGGC | 3.57 PBM z-score against 500 random probes
NRC3_wobSeed116_DR4_A18G_o1 (dsDNA) DNA 1: GCAGAATGAGGTTACCAGAGATCAGGGAAACGCTTGGCGATTGACAGCGTAGAATGAAGG DNA 2: CCTTCATTCTACGCTGTCAATCGCCAAGCGTTTCCCTGATCTCTGGTAACCTCATTCTGC | 3.63 PBM z-score against 500 random probes
NRC3_wobSeed116_DR4_C15A_o1 (dsDNA) DNA 1: GCAGAATGAGGTTAACAAAGATCAGGGAAACGCTTGGCGATTGACAGCGTAGAATGAAGG DNA 2: CCTTCATTCTACGCTGTCAATCGCCAAGCGTTTCCCTGATCTTTGTTAACCTCATTCTGC | 3.61 PBM z-score against 500 random probes
NRC3_wobSeed121_DR5_A26T_o1 (dsDNA) DNA 1: GCCAAACTAGGTCACCGGAAGGTCATAGTCCGCATGGCGATTGACAGCGTAGAATGAAGG DNA 2: CCTTCATTCTACGCTGTCAATCGCCATGCGGACTATGACCTTCCGGTGACCTAGTTTGGC | 6.6 PBM z-score against 500 random probes
NRC3_wobSeed141_DR5_G16C_o1 (dsDNA) DNA 1: GCAGTCAAAGTTCAGCACGAGGTAACGTAAAGCACGGCGATTGACAGCGTAGAATGAAGG DNA 2: CCTTCATTCTACGCTGTCAATCGCCGTGCTTTACGTTACCTCGTGCTGAACTTTGACTGC | 3.7 PBM z-score against 500 random probes
NRC3_wobSeed120_DR4_G5C_o1 (dsDNA) DNA 1: GCCCCAGTAGGTTACGAGGGGGCATTCAGTGCGAATGCGATTGACAGCGTAGAATGAAGG DNA 2: CCTTCATTCTACGCTGTCAATCGCATTCGCACTGAATGCCCCCTCGTAACCTACTGGGGC | 3.76 PBM z-score against 500 random probes
NRC3_wobSeed134_DR5_A30G_o1 (dsDNA) DNA 1: GCGCTGCTAGGTCAACTGATGGTCAGCTAGAGCTCGGCGATTGACAGCGTAGAATGAAGG DNA 2: CCTTCATTCTACGCTGTCAATCGCCGAGCTCTAGCTGACCATCAGTTGACCTAGCAGCGC | 3.59 PBM z-score against 500 random probes
NRC3_wobSeed41_DR1_T4A_o1 (dsDNA) DNA 1: GCAAATGTAGGTTAAGGGTCATTCAGGTTGGTTCGCGCGATTGACAGCGTAGAATGAAGG DNA 2: CCTTCATTCTACGCTGTCAATCGCGCGAACCAACCTGAATGACCCTTAACCTACATTTGC | 6.91 PBM z-score against 500 random probes
NRC3_wobSeed40_DR1_G16A_o1 (dsDNA) DNA 1: GCTAGCCTAGGTCATAGGCCAGTATACCACGCGAACGCGATTGACAGCGTAGAATGAAGG DNA 2: CCTTCATTCTACGCTGTCAATCGCGTTCGCGTGGTATACTGGCCTATGACCTAGGCTAGC | 3.72 PBM z-score against 500 random probes
NRC3_wobSeed77_DR3_A18G_o1 (dsDNA) DNA 1: GCACTTACGGGTCAACGGGGTTATAGCACGCGTATAGCGATTGACAGCGTAGAATGAAGG DNA 2: CCTTCATTCTACGCTGTCAATCGCTATACGCGTGCTATAACCCCGTTGACCCGTAAGTGC | 6.51 PBM z-score against 500 random probes
NRC3_wobSeed65_DR2_A5C_o1 (dsDNA) DNA 1: GCATCTGTAGGTTATCGGGTCATTCAGTTTGCGCATGCGATTGACAGCGTAGAATGAAGG DNA 2: CCTTCATTCTACGCTGTCAATCGCATGCGCAAACTGAATGACCCGATAACCTACAGATGC | 3.8 PBM z-score against 500 random probes
